{"source": "the nanobody polyreactivity screen of Harvey et al. (2022)"}
{"test": "yeast display, Sf9 membrane polyspecificity reagent, FACS + sequencing; frameworks hold sequencing errors", "how_it_was_run": "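In a synthetic yeast display library (Saccharomyces cerevisiae BJ5465), nanobody expression was induced with galactose for 36–48 hours. FACS gates were set low and high (top ~1%) using anti-HA fluorescence for expression and streptavidin fluorescence for binding of the Sf9 membrane reagent. Each polyreactivity label is drawn from the gate of origin.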"}
{"sequence": "QVQLVESGGGLVQAGGSLRLSCAASGRIFRFYAMGWYRQAPGKERVLVAAITRNVGSTFYADSVKGRFTISRDNAKNTVYLQMNSLKPEDSAVFYCAAESDYYYRYTFDYWGQGTQVTVSS", "polyreactivity (PSR sort gate)": "low polyreactivity"}
{"sequence": "QVQLVESGGGLVQAGGSLRLSCAASGRIFRGNAMGWYRQAPGKERELVAAILTGVSTYYADSVKGRFTISRDNAKNTVYLQMNSLNPEDTAVYYCADERPSRRSVYEYWGQCTQVTVSS", "polyreactivity (PSR sort gate)": "low polyreactivity"}
{"sequence": "QVQLVESGGGLVQAGGSLRLSCAASGRIFRGNAMVWSRQAPGKERELVASISWRGASTDYADSVKGRFTISRDNAKNTVYLQMNRMKPEDTAVYYCAARVVWRISVYYVIDYNYWGQGTQVTVSS", "polyreactivity (PSR sort gate)": "high polyreactivity"}
{"sequence": "QVQLVESGGGLVQAGGSLRLSCAASGRIFRGNGMGWYRQAPGKERELVAAIRRSGGSTYYADSVKGRFTISRDNAKNTVYLQMNSLKPDDTAVFYCNADYTVVLSRVIYARGYWGQGTQVTVSS", "polyreactivity (PSR sort gate)": "high polyreactivity"}
{"sequence": "QVQLVESGGGLVQAGGSLRLSCAASGRIFRGNVMGWYRQAPGKERELVAAINSGASSNYADSVKGRFTISRDNAKNTVYLQMNSLKPEDTAVYYCAKRGPRSYFQPCYDYWGQGTQVTVSS", "polyreactivity (PSR sort gate)": "high polyreactivity"}
{"sequence": "QVQLVESGGGLVQAGGSLRLSCAASGRIFRGYAMGLYRQAPGKEREFVAAISWSGGDTYYADSVKGRFTISRDTAKNTVYLQMNSLKPEDTAVYYCATEYRLIPGPFVWPYDYWGQGTQVTVSS", "polyreactivity (PSR sort gate)": "high polyreactivity"}
{"sequence": "QVQLVESGGGLVQAGGSLRLSCAASGRIFRGYAMGWYRQAPGKERELVAAISGSGGSTYYADSVKGRFTISRDNAKNTVYLQMMSLKPEDTAVYYCAADQQSTGDWAGDYWGQGTQVTVSS", "polyreactivity (PSR sort gate)": "low polyreactivity"}
{"sequence": "QVQLVESGGGLVQAGGSLRLSCAASGRIFRGYAMGWYRQAPGKERELVARITSSGSTNYADSVKGRFTISRDNAKNTVYLQMNSLKPEDTAVYYCAADKYYWGTGVWMDYWGQGTQVTVSS", "polyreactivity (PSR sort gate)": "high polyreactivity"}
{"sequence": "QVQLVESGGGLVQAGGSLRLSCAASGRIFRGYVMGWYRQAPGKERELVAITIGAGRTYYADSVKGRFTISRDNAKNTVYLQMISLKPEDTAVYYFAVRLYANSGRFDYWGQGTQVTVSS", "polyreactivity (PSR sort gate)": "low polyreactivity"}
{"sequence": "QVQLVESGGGLVQAGGSLRLSCAASGRIFRHNPMGWYRQAPGKERELVAAITSRGGTYYADSVKGRFTISRDNAKNTVYFQMNSVKPEDTAVYYCAADRPIYPYPGKGFRYDYWGQGTQVTVSS", "polyreactivity (PSR sort gate)": "low polyreactivity"}
{"sequence": "QVQLVESGGGLVQAGGSLRLSCAASGRIFRHNTMGWYRQAPGKERELVAGITASGGDTYYADSVKGRFTISRDNAKNTVYLDMNSLKPEDTAVYYCATSQYGYRSWPGLYYWGQGTQVTVSS", "polyreactivity (PSR sort gate)": "low polyreactivity"}
{"sequence": "QVQLVESGGGLVQAGGSLRLSCAASGRIFRINAMGWYRQAPGKERELVASISRRGGNTYYADSVKGRFTISRDNAKNTVYLQMNSLKPEDTAVYYCAADTNQERTFYYWGQGTQVTVSS", "polyreactivity (PSR sort gate)": "low polyreactivity"}
{"sequence": "QVQLVESGGGLVQAGGSLRLSCAASGRIFRINAMGWYRQAPGKERELVASITSRAGSTYYADSVKGRFTISRDNAKNTVYLQMTSLKPEDTAVYDCAARSVYTYYRLDYWGQGSQVTVSS", "polyreactivity (PSR sort gate)": "high polyreactivity"}
{"sequence": "QVQLVESGGGLVQAGGSLRLSCAASGRIFRINTMGWNRQAPGKERELVAAIRTSGSSTYADSVKGRFTISRDNAKNTVYLQMNSLKPEDTAVYYCNTKYPGRGYYWGQGTQVTVSS", "polyreactivity (PSR sort gate)": "high polyreactivity"}
{"sequence": "QVQLVESGGGLVQAGGSLRLSCAASGRIFRIYAMGWYIQAPGKERELVARITYSVGSTYYADSVKGRFTISRDNEKNSVFLQMNSLKPEDTSVYYCAADWLGYQYGYWGQGSQVTVSS", "polyreactivity (PSR sort gate)": "low polyreactivity"}
{"sequence": "QVQLVESGGGLVQAGGSLRLSCAASGRIFRKYTMGWYRQAPGKERELVAAISARGGSTYYADSVKGRFTISRDNAKNTVYLQMNSLKPEDTAVYYCTTSPIGNITYRYDYWGQGTQVTVSS", "polyreactivity (PSR sort gate)": "high polyreactivity"}
